Source: the RNAGym collection of RNA variant scans (doi:10.7554/elife.90254)

B1: LINE1-full (parent)
chain: UACGUAGGUGGUUUUCCCCUGAUAGUGCUAAGGGGGCCUGGAAGUUUGGACUGGGCAGAGCUCAACACAGCGUGGCAAAGUGGCUGUGGCUAGACUGCCUCUCUGGAUUCCUCGUCACUCAGCAGGGCAUCUCUGAGAGAAAUGCC

Variants of: B1
Test: self-cleavage, relative activity (ratio to wild type); higher = more cleavage; in vitro, sequencing; the parent is a self-cleaving ribozyme

Variant	self-cleavage
UACGUAGGUGGUUUUCCCCUGAUAGUGCUAAGGGGGCCUGGAAGUUAGGACUGGGCAGGGCUCAACACAGCGUGGCAAAGUGGCUGUGGCUAGACUGCCUCUCUGGAUUCCUCGUCACUCAGCAGGGCAUCUCUGAGAGAAAUGCC [U47A A59G]	0.05
UACGUAGGUGGUUUUCCCCUGAUAGUGCUAAGGGGGCCUGGAAGUUAGGACUGGGCAGAGCUCCACACAGCGUGGCAAAGUGGCUGUGGCUAGACUGCCUCUCUGGAUUCCUCGUCACUCAGCAGGGCAUCUCUGAGAGAAAUGCC [U47A A64C]	0.25
UACGUAGGUGGUUUUCCCCUGAUAGUGCUAAGGGGGCCUGGAAGUUAGGACUGGGCAGAGCUCUACACAGCGUGGCAAAGUGGCUGUGGCUAGACUGCCUCUCUGGAUUCCUCGUCACUCAGCAGGGCAUCUCUGAGAGAAAUGCC [U47A A64U]	0.44
UACGUAGGUGGUUUUCCCCUGAUAGUGCUAAGGGGGCCUGGAAGUUAGGACUGGGCAGAGCUCAACGCAGCGUGGCAAAGUGGCUGUGGCUAGACUGCCUCUCUGGAUUCCUCGUCACUCAGCAGGGCAUCUCUGAGAGAAAUGCC [U47A A67G]	0.38
UACGUAGGUGGUUUUCCCCUGAUAGUGCUAAGGGGGCCUGGAAGUUAGGACUGGGCAGAGCUCAACACUGCGUGGCAAAGUGGCUGUGGCUAGACUGCCUCUCUGGAUUCCUCGUCACUCAGCAGGGCAUCUCUGAGAGAAAUGCC [U47A A69U]	0.04
UACGUAGGUGGUUUUCCCCUGAUAGUGCUAAGGGGGCCUGGAAGUUAGGACUGGGCAGAGCUCAACACAGCGUGGCCAAGUGGCUGUGGCUAGACUGCCUCUCUGGAUUCCUCGUCACUCAGCAGGGCAUCUCUGAGAGAAAUGCC [U47A A77C]	1.6
UACGUAGGUGGUUUUCCCCUGAUAGUGCUAAGGGGGCCUGGAAGUUAGGACUGGGCAGAGCUCAACACAGCGUGGCUAAGUGGCUGUGGCUAGACUGCCUCUCUGGAUUCCUCGUCACUCAGCAGGGCAUCUCUGAGAGAAAUGCC [U47A A77U]	1.46
UACGUAGGUGGUUUUCCCCUGAUAGUGCUAAGGGGGCCUGGAAGUUAGGACUGGGCAGAGCUCAACACAGCGUGGCAGAGUGGCUGUGGCUAGACUGCCUCUCUGGAUUCCUCGUCACUCAGCAGGGCAUCUCUGAGAGAAAUGCC [U47A A78G]	0.29
UACGUAGGUGGUUUUCCCCUGAUAGUGCUAAGGGGGCCUGGAAGUUAGGACUGGGCAGAGCUCAACACAGCGUGGCAUAGUGGCUGUGGCUAGACUGCCUCUCUGGAUUCCUCGUCACUCAGCAGGGCAUCUCUGAGAGAAAUGCC [U47A A78U]	2.04
UACGUAGGUGGUUUUCCCCUGAUAGUGCUAAGGGGGCCUGGAAGUUAGGACUGGGCAGAGCUCAACACAGCGUGGCAAGGUGGCUGUGGCUAGACUGCCUCUCUGGAUUCCUCGUCACUCAGCAGGGCAUCUCUGAGAGAAAUGCC [U47A A79G]	1.05
UACGUAGGUGGUUUUCCCCUGAUAGUGCUAAGGGGGCCUGGAAGUUAGGACUGGGCAGAGCUCAACACAGCGUGGCAAUGUGGCUGUGGCUAGACUGCCUCUCUGGAUUCCUCGUCACUCAGCAGGGCAUCUCUGAGAGAAAUGCC [U47A A79U]	1.64
UACGUAGGUGGUUUUCCCCUGAUAGUGCUAAGGGGGCCUGGAAGUUAGGACUGGGCAGAGCUCAACACAGCGUGGCAAAGUGGCUGUGGCUGGACUGCCUCUCUGGAUUCCUCGUCACUCAGCAGGGCAUCUCUGAGAGAAAUGCC [U47A A92G]	0.17
UACGUAGGUGGUUUUCCCCUGAUAGUGCUAAGGGGGCCUGGAAGUUAGGACUGGGCAGAGCUCAACACAGCGUGGCAAAGUGGCUGUGGCUUGACUGCCUCUCUGGAUUCCUCGUCACUCAGCAGGGCAUCUCUGAGAGAAAUGCC [U47A A92U]	0.5
UACGUAGGUGGUUUUCCCCUGAUAGUGCUAAGGGGGCCUGGAAGUUAGGACUGGGCAGAGCUCAACACAGCGUGGCAAAGUGGCUGUGGCUAGUCUGCCUCUCUGGAUUCCUCGUCACUCAGCAGGGCAUCUCUGAGAGAAAUGCC [U47A A94U]	0.18
UACGUAGGUGGUUUUCCCCUGAUAGUGCUAAGGGGGCCUGGAAGUUAGGACUGGGCAGAGCUCAACACAGCGUGGCAAAGUGGCUGUGGCUAGACUGCCUCUCUGGUUUCCUCGUCACUCAGCAGGGCAUCUCUGAGAGAAAUGCC [U47A A107U]	1.79
UACGUAGGUGGUUUUCCCCUGAUAGUGCUAAGGGGGCCUGGAAGUUAGGACUGGGCAGAGCUCAACACAGCGUGGCAAAGUGGCUGUGGCUAGACUGCCUCUCUGGAUUCCUCGUCACUCGGCAGGGCAUCUCUGAGAGAAAUGCC [U47A A121G]	1.39
UACGUAGGUGGUUUUCCCCUGAUAGUGCUAAGGGGGCCUGGAAGUUAGGACUGGGCAGAGCUCAACACAGCGUGGCAAAGUGGCUGUGGCUAGACUGCCUCUCUGGAUUCCUCGUCACUCUGCAGGGCAUCUCUGAGAGAAAUGCC [U47A A121U]	1.04
UACGUAGGUGGUUUUCCCCUGAUAGUGCUAAGGGGGCCUGGAAGUUAGGACUGGGCAGAGCUCAACACAGCGUGGCAAAGUGGCUGUGGCUAGACUGCCUCUCUGGAUUCCUCGUCACUCAGCGGGGCAUCUCUGAGAGAAAUGCC [U47A A124G]	0.79
UACGUAGGUGGUUUUCCCCUGAUAGUGCUAAGGGGGCCUGGAAGUUAGGACUGGGCAGAGCUCAACACAGCGUGGCAAAGUGGCUGUGGCUAGACUGCCUCUCUGGAUUCCUCGUCACUCAGCAGGGCGUCUCUGAGAGAAAUGCC [U47A A129G]	1.43
UACGUAGGUGGUUUUCCCCUGAUAGUGCUAAGGGGGCCUGGAAGUUAGGACUGGGCAGAGCUCAACACAGCGUGGCAAAGUGGCUGUGGCUAGACUGCCUCUCUGGAUUCCUCGUCACUCAGCAGGGCAUCUCUGUGAGAAAUGCC [U47A A136U]	1.48

Variant	self-cleavage
UACGUAGGUGGUUUUCCCCUGAUAGUGCUAAGGGGGCCUGGAAGUUAGGACUGGGCAGAGCUCAACACAGCGUGGCAAAGUGGCUGUGGCUAGACUGCCUCUCUGGAUUCCUCGUCACUCAGCAGGGCAUCUCUGAGGGAAAUGCC [U47A A138G]	1.39
UACGUAGGUGGUUUUCCCCUGAUAGUGCUAAGGGGGCCUGGAAGUUAGGACUGGGCAGAGCUCAACACAGCGUGGCAAAGUGGCUGUGGCUAGACUGCCUCUCUGGAUUCCUCGUCACUCAGCAGGGCAUCUCUGAGAGUAAUGCC [U47A A140U]	1.25
UACGUAGGUGGUUUUCCCCUGAUAGUGCUAAGGGGGCCUGGAAGUUAGGACUGGGCAGAGCUCAACACAGCGUGGCAAAGUGGCUGUGGCUAGACUGCCUCUCUGGAUUCCUCGUCACUCAGCAGGGCAUCUCUGAGAGAAGUGCC [U47A A142G]	1.4
UACGUAGGUGGUUUUCCCCUGAUAGUGCUAAGGGGGCCUGGAAGUUAGGACUGGGCAGAGCUUAACACAGCGUGGCAAAGUGGCUGUGGCUAGACUGCCUCUCUGGAUUCCUCGUCACUCAGCAGGGCAUCUCUGAGAGAAAUGCC [U47A C63U]	0.33
UACGUAGGUGGUUUUCCCCUGAUAGUGCUAAGGGGGCCUGGAAGUUAGGACUGGGCAGAGCUCAACAUAGCGUGGCAAAGUGGCUGUGGCUAGACUGCCUCUCUGGAUUCCUCGUCACUCAGCAGGGCAUCUCUGAGAGAAAUGCC [U47A C68U]	0.13
UACGUAGGUGGUUUUCCCCUGAUAGUGCUAAGGGGGCCUGGAAGUUAGGACUGGGCAGAGCUCAACACAGCGUGGUAAAGUGGCUGUGGCUAGACUGCCUCUCUGGAUUCCUCGUCACUCAGCAGGGCAUCUCUGAGAGAAAUGCC [U47A C76U]	1.83
UACGUAGGUGGUUUUCCCCUGAUAGUGCUAAGGGGGCCUGGAAGUUAGGACUGGGCAGAGCUCAACACAGCGUGGCAAAGUGGCUGUGGUUAGACUGCCUCUCUGGAUUCCUCGUCACUCAGCAGGGCAUCUCUGAGAGAAAUGCC [U47A C90U]	0.03
UACGUAGGUGGUUUUCCCCUGAUAGUGCUAAGGGGGCCUGGAAGUUAGGACUGGGCAGAGCUCAACACAGCGUGGCAAAGUGGCUGUGGCUAGACUGCCUCUCUGGAUUUCUCGUCACUCAGCAGGGCAUCUCUGAGAGAAAUGCC [U47A C110U]	0.95
UACGUAGGUGGUUUUCCCCUGAUAGUGCUAAGGGGGCCUGGAAGUUAGGACUGGGCAGAGCUCAACACAGCGUGGCAAAGUGGCUGUGGCUAGACUGCCUCUCUGGAUUCAUCGUCACUCAGCAGGGCAUCUCUGAGAGAAAUGCC [U47A C111A]	1.18
UACGUAGGUGGUUUUCCCCUGAUAGUGCUAAGGGGGCCUGGAAGUUAGGACUGGGCAGAGCUCAACACAGCGUGGCAAAGUGGCUGUGGCUAGACUGCCUCUCUGGAUUCCUUGUCACUCAGCAGGGCAUCUCUGAGAGAAAUGCC [U47A C113U]	1.17
UACGUAGGUGGUUUUCCCCUGAUAGUGCUAAGGGGGCCUGGAAGUUAGGACUGGGCAGAGCUCAACACAGCGUGGCAAAGUGGCUGUGGCUAGACUGCCUCUCUGGAUUCCUCGUCACUCAGUAGGGCAUCUCUGAGAGAAAUGCC [U47A C123U]	0.7
UACGUAGGUGGUUUUCCCCUGAUAGUGCUAAGGGGGCCUGGAAGUUAGGACUGGGCAGAGCUCAACACAGCGUGGCAAAGUGGCUGUGGCUAGACUGCCUCUCUGGAUUCCUCGUCACUCAGCAGGGCAUCUCUGAGAGAAAUGCU [U47A C146U]	1.68
UACGUAGGUGGUUUUCCCCUGAUAGUGCUAAGGGGGCCUGGAAGUUAGGACUGGGCAGAGCUCAACACAGCAUGGCAAAGUGGCUGUGGCUAGACUGCCUCUCUGGAUUCCUCGUCACUCAGCAGGGCAUCUCUGAGAGAAAUGCC [U47A G72A]	0.95
UACGUAGGUGGUUUUCCCCUGAUAGUGCUAAGGGGGCCUGGAAGUUAGGACUGGGCAGAGCUCAACACAGCGUGGCAAAGUGGCUAUGGCUAGACUGCCUCUCUGGAUUCCUCGUCACUCAGCAGGGCAUCUCUGAGAGAAAUGCC [U47A G86A]	0.07
UACGUAGGUGGUUUUCCCCUGAUAGUGCUAAGGGGGCCUGGAAGUUAGGACUGGGCAGAGCUCAACACAGCGUGGCAAAGUGGCUGUUGCUAGACUGCCUCUCUGGAUUCCUCGUCACUCAGCAGGGCAUCUCUGAGAGAAAUGCC [U47A G88U]	0.03
UACGUAGGUGGUUUUCCCCUGAUAGUGCUAAGGGGGCCUGGAAGUUAGGACUGGGCAGAGCUCAACACAGCGUGGCAAAGUGGCUGUGGCUAGACUGCCUCUCUGCAUUCCUCGUCACUCAGCAGGGCAUCUCUGAGAGAAAUGCC [U47A G106C]	2.21
UACGUAGGUGGUUUUCCCCUGAUAGUGCUAAGGGGGCCUGGAAGUUAGGACUGGGCAGAGCUCAACACAGCGUGGCAAAGUGGCUGUGGCUAGACUGCCUCUCUGGAUUCCUCGUCACUCAGCAGGUCAUCUCUGAGAGAAAUGCC [U47A G127U]	1.67
UACGUAGGUGGUUUUCCCCUGAUAGUGCUAAGGGGGCCUGGAAGUUAGGACUGGGCAGAGCUCAACACAGCGUGGCAAAGUGGCUGUGGCUAGACUGCCUCUCUGGAUUCCUCGUCACUCAGCAGGGCAUCUCUGAUAGAAAUGCC [U47A G137U]	1.36
UACGUAGGUGGUUUUCCCCUGAUAGUGCUAAGGGGGCCUGGAAGUUAGGACCGGGCAGAGCUCAACACAGCGUGGCAAAGUGGCUGUGGCUAGACUGCCUCUCUGGAUUCCUCGUCACUCAGCAGGGCAUCUCUGAGAGAAAUGCC [U47A U52C]	1.37
